{"source": "patent US20180163216", "about": "“GENE EXPRESSION IN BACTEROIDES” (Massachusetts Institute of Technology, published 2018)", "key": {"Int12 serine integrase": {"tested_on": "T1, Int12 serine integrase", "T1 sequence": "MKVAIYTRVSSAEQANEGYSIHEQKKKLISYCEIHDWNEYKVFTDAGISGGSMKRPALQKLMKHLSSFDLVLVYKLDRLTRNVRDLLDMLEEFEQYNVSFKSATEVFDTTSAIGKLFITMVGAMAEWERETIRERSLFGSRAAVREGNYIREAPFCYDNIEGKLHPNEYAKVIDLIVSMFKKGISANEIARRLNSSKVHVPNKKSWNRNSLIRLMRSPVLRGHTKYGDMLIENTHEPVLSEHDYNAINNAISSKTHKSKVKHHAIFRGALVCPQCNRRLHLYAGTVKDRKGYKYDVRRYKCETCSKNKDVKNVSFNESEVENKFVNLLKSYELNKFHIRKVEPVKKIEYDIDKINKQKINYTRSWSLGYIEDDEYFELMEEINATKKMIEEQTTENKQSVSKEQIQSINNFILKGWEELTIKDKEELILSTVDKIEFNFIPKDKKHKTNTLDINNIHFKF", "assay": "cell_activity", "conditions": "flipping in <1 day in mouse gut with rhamnose; also inversion by PCR in vitro culture"}, "[1]": {"tested_on": "RhaR (AraC/XylS-family activator) (Bacteroides thetaiotaomicron)", "assay": "cell_activity", "conditions": "printed 104-fold (10^4); rhamnose-induced NanoLuc; K=0.3 mM rhamnose, n=1.4"}, "LacIQ repressor [2]": {"biological_target": "T2, LacIQ repressor (Escherichia coli, UniProt P03023 SEQ:5-363)", "T2 sequence (P03023 2-360)": "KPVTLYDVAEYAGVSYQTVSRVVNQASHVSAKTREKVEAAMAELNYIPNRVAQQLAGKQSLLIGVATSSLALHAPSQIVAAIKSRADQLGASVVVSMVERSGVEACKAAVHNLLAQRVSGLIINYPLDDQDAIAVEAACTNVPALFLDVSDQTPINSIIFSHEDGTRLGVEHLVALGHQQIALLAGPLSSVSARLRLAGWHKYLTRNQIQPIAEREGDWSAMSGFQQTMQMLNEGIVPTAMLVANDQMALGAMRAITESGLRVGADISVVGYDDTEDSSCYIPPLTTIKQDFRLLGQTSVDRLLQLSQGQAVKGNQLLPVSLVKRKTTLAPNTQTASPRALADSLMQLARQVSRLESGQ", "assay": "cell_activity; fold induction by IPTG; K=6 uM IPTG", "conditions": "expressed from PBT1311 in B. thetaiotaomicron; chain copies: 4", "description": "(§1) Next, an IPTG-inducible system was developed. Pairs of LacO1 operator sites were inserted in the strong PcfxA promoter in three locations: upstream of the −33 element (O1), between the −33 and −7 elements (O2) or just downstream of the transcription start site (O3) (FIGS. 7A-7B)."}, "LacIQ repressor [3]": {"biological_target": "T2, LacIQ repressor", "assay": "cell_activity; fold induction by IPTG; K=86 uM IPTG", "conditions": "expressed from PBT1311 in B. thetaiotaomicron; chain copies: 4", "description": "as §1"}}}
{"molecule": "Int12 attB/attP in memory array", "values": [{"measurement": "activity", "setting": "Int12 serine integrase", "result": "> 90", "unit": "%"}]}
{"molecule": "TATTTCGGAGAAAACATGCATAAATCATGCTTTTTTTGCATAAAAAGTAAAATTTATACTGATGTAAGGTTTGGCTATGCAGATTTGTGTCAAAATGCACATCCTTTCTATCAAAATGCGTAAGGAAAAGGAGGAAGGAACCGCCTATCTTTGCAATGTAGGTAAATGGATACCTTAAATATATAGACAAAATACC (double strand) [PBT3763]", "values": [{"measurement": "activity", "setting": "[1]", "result": 10000, "unit": "fold"}]}
{"molecule": "PLacO23 (dsDNA) DNA 1: TTACAAAGAAAATTCGACAAACTGTTATTTTTCTATCTATTTATTTGAATTGTGAGCGGATAACAATTACCTTTGTCGGCAATTGTGAGCGGATAACAATTAAATAAAGATATTCTCGTCAAACAAATATAAATAATATAAAC DNA 2: GTTTATATTATTTATATTTGTTTGACGAGAATATCTTTATTTAATTGTTATCCGCTCACAATTGCCGACAAAGGTAATTGTTATCCGCTCACAATTCAAATAAATAGATAGAAAAATAACAGTTTGTCGAATTTTCTTTGTAA", "values": [{"measurement": "activity", "setting": "LacIQ repressor [2]", "result": 22, "unit": "fold"}]}
{"molecule": "PLacO13 (dsDNA) DNA 1: TTACAAAGAAAATTCGACAAACTGTTATTTTTCTATCTATTTAAATTGTGAGCGGATAACAATTTGGGTGGGAAACTTTAGTTATGTACCTTTGTCGGCAATTGTGAGCGGATAACAATTAAATAAAGATATTCTCGTCAAACAAATATAAATAATATAAAC DNA 2: GTTTATATTATTTATATTTGTTTGACGAGAATATCTTTATTTAATTGTTATCCGCTCACAATTGCCGACAAAGGTACATAACTAAAGTTTCCCACCCAAATTGTTATCCGCTCACAATTTAAATAGATAGAAAAATAACAGTTTGTCGAATTTTCTTTGTAA", "values": [{"measurement": "activity", "setting": "LacIQ repressor [3]", "result": 8, "unit": "fold"}]}
